Measurements from patent publication US20220403044A1 (ACADEMIA SINICA, published 2022).

Key:
[1] = biological target: T1, EGFR-Flag (UniProt P00533 25-1210, limits assumed); experiment: co-IP from HEK293T cells overexpressing EpCAM-V5 and EGFR-Flag (FIG. 1C)
T1 construct: whole, on cells; also called exogenous EGFR; not shown: Flag tag
Procedure: (§1) FIGS. 1A to 1H. EpEX binds to EGFR through its EGF-like domain I. (FIG. 1A) Immunoprecipitation (IP) of affinity cross-linked EpEX-Fc bound to EGFR from HCT116 cells. (FIG. 1B) EpEX-Fc was added to EGFRECD-coated ELISA plates and detected by TMB colorimetric peroxidase assay. (FIG. 1C) 293T cells were transfected with EGFR-Flag and EpCAM-V5. IP was performed with anti-V5 antibody (left panel) or anti-Flag antibody (right panel) followed by Western blotting. (FIG. 1D) 293T cells were transfected with EGFR-Flag and EGF domain-deleted mutant EpCAM-V5. The protein interaction was probed by IP with anti-V5 antibody and Western blotting with anti-Flag antibody. (FIG. 1E) In culture media from 293T cells with EGFRECD-Flag and EpEX-Fc transfection, IP was performed with Dynabeads® Protein G and detected by Western blotting with anti-Flag antibody. (FIG. 1F) 293T cells were transiently transfected with EGFRECD-Flag and EGF domain-deleted mutant EpEX-Fc. […] (FIG. 1G) Purified EGFRECD-6×His and EGF domain-deleted mutant EpEX-Fc were incubated and IP was performed with Dynabeads® Protein G and detected by Western blotting. (FIG. 1H) HCT116 cells were starved and treated with wild-type or EGF domain-deleted mutant EpEX, and EGFR signaling was analyzed by Western blotting. […]

[2] = biological target: T1, EGFR-Flag; experiment: co-IP with anti-V5, Western blot with anti-Flag, transfected 293T cells (FIG. 1D)
Procedure: as §1

B1: EpCAM-V5 (other, UniProt P16422 24-314, looked up)
chain: QEECVCENYKLAVNCFVNNNRQCQCTSVGAQNTVICSKLAAKCLVMKAEMNGSKLGRRAKPEGALQNNDGLYDPDCDESGLFKAKQCNGTSMCWCVNTAGVRRTDKDTEITCSERVRTYWIIIELKHKAREKPYDSKSLRTALQKEITTRYQLDPKFITSILYENNVITIDLVQNSSQKTQNDVDIADVAYYFEKDVKGESLFHSKKMDLTVNGEQLDLDPGQTLIYYVDEKAPEFSMQGLKAGVIAVIVVVVIAVVAGIVVLVISRKKRMAKYEKAEIKEMGEMHRELNA
notes: whole, on cells; also called exogenous EpCAM; not shown: V5 tag
B1: binds [1].

B2: EGF-like domain II-deleted EpCAM mutant (EpCAMΔEGFII), V5-tagged (other, UniProt P16422 24-314, looked up)
chain: QEECVCENYKLAVNCFVNNNRQCQCTSVGAQNTVICSKLAAKSERVRTYWIIIELKHKAREKPYDSKSLRTALQKEITTRYQLDPKFITSILYENNVITIDLVQNSSQKTQNDVDIADVAYYFEKDVKGESLFHSKKMDLTVNGEQLDLDPGQTLIYYVDEKAPEFSMQGLKAGVIAVIVVVVIAVVAGIVVLVISRKKRMAKYEKAEIKEMGEMHRELNA
notes: whole, on cells; also called EGF domain-deleted mutant EpCAM-V5; not shown: V5 tag
B2: binds [2].
